# Laboratory results published in the DeepSol protein solubility set.
# Assay: soluble on expression in E. coli; label from the status in PepcDB or PDB records
row,Sequence,soluble on expression in E. coli
1,MSAKIKAWSSNAEKLNSKRKKMEIREELFPSTTCSSSPQANQEISSEDRNSHHPDIASSSSATTCRSSNCFNMDEGILTRDVEMDFSDEIPTFSHNRFSNPVFPPTPSRNSFSTPRVRIISNVEQIPQIKMLRLTIERLKNEKMKYQKKYKSGMAVDFLSKCGLSLSQMEKIKNYLTNSIGYDLLPLVKNTRDLSIQLSMISSFKVSTSFDNKGKVITIVQCMKIAEVLAYRIELLCNSNQFVDDGYTKGVIKIGVVGDAGGGSTKHVMVIAVYDGSDNYSCLKKFIPDVLEQLGKLTKIRYLDKGVQKTAKIVQIATGDCKFQFDILGHQGHSSHNFCFKCFAQNPRGAEERMKIKDMNVDETFHPRTIDLYKACCTPLLPHVAIMFYLIPLLHIIMGIFDKYIFNPLWKYSVTLDNTTCFPILKTRKATLKNAVNLIKSAEEKYQAATGKMKLESHAELKALQSEKLLLDTIVNGTPGGTLEKMEQCWAKFGADKQAWFQSFCGNHLKLLLTPAIVEETFNIFGPNLCPMLLGLKSAMGKLSTIMSLSGNKFLNDSDVLILQNSIRGFVEDLKVAVPEETIILKLHLVVYHAPQMAKDVRNIGRITEPGVESVHAIFNALERRFCNYRDKKRRYIHVLRELMCRNIMNDMTMNTSIPGLSIVPKDATVLPISSQNDLRDPKVVIRDVTAAQKRKNLAKKKINFSSKKRLPQSTKSRNAVPDFSQNVQTSIAFGGNSTKIGFRGLPSNALSRPNPMAITQTCSTSQPITRSHPLVAPPVSYQLPKCSNSLAEKIRASCGQARRSAAESSSTESHVDTNSKKKVYRLKFVQKSREIPKK,not soluble
2,MNSELKARYKVLGSEKEHTKSETLTETLIEVIVNGDVEPGSKISEPELARKYQVSRGPLREALMRLEGLGLIERIPHVGARVTTFSPAKLIELYSVREALEGMAARLAARHITQEELLSLEMLLSTHSKHIDQVEGASYFHQHGDFDFHYRIIQASRNSKLISLLCDELYHLLRMYRYQSPRAQSRPNEALTEHKFILEAIRNRDEELAEMLMRRHISGSRKLIQSQIIHTESLDKD,not soluble
3,MKVGIIGKQGRLGRVLQAILDENGFDVVENNWDIAFLSVPIGAAISYIEKYDGPFIEVSSVKTPFKKYAGRIVSIHPLFGPASYKDGVHRTVLFIKDISMPEYRDLIAEMFRGYEIVDTTADVHDKEMAKSLALPYAVAIISKNIDTAFRTKSFDTFKGIVRILENENEEVMLDTINKNPYAQYMYDIVKNLGMVIQMAGDPLEHHHHHH,not soluble
4,MGSDKIHHHHHHMESLIESNINFSIFFYNPNIHPVKEYLIRKEENIRFAEKHNIPFIDADYDTDNWFARAKGMENEPERGIRCTMCFDMRFERTALYAYENGFSLISSSLGISRWKNMAQINDCGIRAASHYPDIQYWDYNWRKNGGSSRMIEISKREEFYQQEYCGCVYSLRDTNRWRMSNGRDRIKIGVKFYSNAMEND,not soluble
5,QTKIYESYKLPDYLKDKIKNNNHAEMDENDLDNKIFYKPNVAAHSQFIDYKYNGNHSVEIKFETDAIEVYEIRPVSIATITHVTIPNDCASNNSNSNECVLIIHVWNNSKFVGSNFSCSIACTNKETDQLASHINPIAPVRAFIGPNKNYAFYFIIKFLINKEITTLCKAIVKDSNGKECSIEEFELQSKESVHIVESEVDETTDQVVVEHHTQSPDIKNPDEYVCKCTINLLCYV,soluble
6,MQKPDESNEKHDIPCTSASLLDHLIQKEASAAEDTDPLDHIGNIGEAIIGQFSSGADVGTEILQNALKMFDQAMAYTNPQAPPKRKYKRKEAPIEDAQPTTTSSATLASLLTLNPVPIESSAKRFHQNDLRAGFSPRTKFDVDCSDFFLLQGSDADTQFNNLHKKLEKERTQMFDDQVSKDVERLLNTANRVHGPREWTAEEKAEFTSYCRSWRSGALGADDKLNLQKFYSKAYGKVFQGLSENKASSEESAIDFSNFMGVGSEDPANQTEDVPGGSCKASPDNFSFSTLNPRMKYEKEKEFRSAINNIFTEVFKEFHSKKQFIPKPTRLDVPPCEIEREHLSMLMSKFSIAMDDPEKEWNVDELQELRRFYTLFREKNHLPFVQTKEFGKFLRKAFGRLEHYELQRENDTSLQEKRKFWQEYRKTHVPPKRERKACAARTTPVRPYIKSNIDTKGETEEERRLRRAAYLRKWRLAQKEKHSADVMSQFKHQEDVAL,not soluble
7,SPFMFRPRKQVFQTQGAAVSSMAQTLLPNDLASKAMGSAFTALLDANEDAQKAMKIIKTLSSLSDAWENVKETLNNPEFWKQLLSRCVQLIAGMTIAVMHPDPLTLLCLGTLTAAEITSQTSLCEEIAAKFKTIFITPPPRFPTISLFQQQSPLKQVNDIFSLAKNLDWAVKTVEKVVDWFGTWIVQEEKEQTLDQLLQRFPEHAKRISDLRNGMAAYVECKESFDFFEKLYNQAVKEKRTGIAAVCEKFRQKHDHATARCEPVVIVLRGDAGQGKSLSSQVIAQAVSKTIFGRQSVYSLPPDSDFFDGYENQFAAIMDDLGQNPDGSDFTTFCQMVSTTNFLPNMASLERKGTPFTSQLVVATTNLPEFRPVTIAHYPAVERRITFDYSVSAGPVCSKTEAGYKVLDVERAFRPTGEAPLPCFQNNCLFLEKAGLQFRDNRTKEIISLVDVIERAVARIERKKKVLTTVQTLVAQ,soluble
8,MFTQLALLSVLAVFVAQATMNLPSQEQYNAELKSAGMSQAGIDGLNVLSQKFVSQYPVVQANKEAADKFLAEYTEEAQNYVKSMSPEDQKIYAESLKKYGLA,not soluble
9,MSPTLQDARLLWDFLGQGRCHVPCELLVVCGSYDLRVCDHACELLERGLAERLLFTGNTGHWTRHLWVEPEAELFARHARARGVSDSLIVIEPRATNFAENIAFARELFPDLRRATFVTKPNSIRRVALTLPVRWPGLEGHVDAPDYAFPDGISNLVGVLGVIDEMVGDLDRIMRYPALGFQVACPIPAQVMDAWERLVARGFDRHLVNPPRLEHHHHHH,soluble
10,MGSDKIHHHHHHMGKVLFVSGIDTDIGKSVATGYYARYLMQLGYSVITQKMVQTGCCDISSDILIHRKIQGVELADEDRKGETCCYLFDYPCSPYLAACLQNTYIDEKTIEKYTALLAQKYDYVLLEGAGGLMVPYAEGKTTLDYITAHNYPLILVTSGRLGSINHTLLSLEVCAHQNINVDTLIYNLYPPTDKLITQDTQQYFKSYLAKRFPTTKFMLMQKIDF,not soluble
11,MGGVFSSASSNQAQITGILQELERTRLEREIALAHLQERRRIAFKIAEEREKFNWIACGGSLVVVLSALSSFHHKNLLHVIPIFPMASFIGYKAHFCYGDQLKKISETSTQLLEESVDALVPLPPTIADVRSRSKQIKEEESSNY,not soluble
12,GPGSMMVGKAPKNCVHIGLCVLYSGSGFRGLQIQVHAPTCHTVEGVLIQALKDAGIIADVVRGRPAGEHHHFARSCRTDRGVHAIRNMVSLFVPKEVFEKMGQAEGICEKLNRQLPATVRVANVMQLSGSFIPRHCCNRRVYRYMLPLYALLPPCDTWAAVDKYYPGCLAHVQALAEEAAAAQRTQYSIPYVDLEKMNAVARPADAQALPSSWLRDLKASADRCNQVLRSHFTGSRRYHNFSVDIDSNRSGVSAKVIQPTTDEALRAIYRSEVCPRLFFFPCSTKGGAADEAPVPVHGESRTEYDMNLLRYPPRTPTSPEDTVGGSAAASTTTTPTGTSTTPATCLSPNTTALPFLFFQIEGCSFLLNMIRKIIGSVLAVCRGARESILEDAFSPECRVTTPLAPGPYLYLAQSTYHGYDRSIGGAGNAHQPGRLKTVQDAWGGAVSEAAELFAFHKIAADIVDVDLNAMPPLDDILAARDRAREASRPHTAVEDAHLAEMKEYKPVLPTRIPWPASSDMTVFLRLLRVHNWNVRPIQLDPACKALREIKNRKERLTASSVAAAASPGAEASKAGEADGGDTRANEATVEQAATPTGDAWRIRSEGSSTGGVPEGGEDGWLYVADTPEEASVQRQAYFASLWKRARPWEYDDATGKSLIHGGEVGTEDDFDDGDGSTARPRRHRRV,soluble
13,MTESITRDSMQYDVVIVGAGPSGLSAAIKLKQLAEQNGREISVCVVEKGSEVGAHSLAGAVIDPIALNELISDWKEKGAPLTRTVTQDKVLFLTEKKAFNLPITPNFDNHGNYIVSLGEVVRWLAEQAENMGVEIYPGFAAAEVLYHEDGSVKGIATGNMGIGKDGEPTDSFQPGMELWAQQTLFAEGCRGSLSKQIIERFQLDQNSQPQTYGLGIKEVWEVPSEQHQPGLVVHSAGWPLDSKTYGGAFVYHFDDNKVAVGFVVGLDYQNPYLSPFEEFQRFKTHPEIRKTFEGGRRIAYGARSLIEGGLQSLPKLSFKGGILVGDAAGFLNMPRIKGIHTAMKSAMLAAEAVFPLLENLEEVEGFDSGKEAADYQQRFEQSWLYQELYAARNVRPSFKWGVYLGSIYTGIDQMIFRGKAPWTLKHHGKDNEQLKKAAACKPIDYPKPDGVLTFDRLSSVFLANLAHEENQPDHLVLNNPQTMIDVNYKEYASPETRYCPAGVYEIVEENGNPRLQINAANCVHCKTCDIKDPTQNITWICPEGASGPNYGGM,not soluble
14,MKMARMSKKKKLEMLDVARDEERNRIIRLLTEDDNFTPSLEPLIDNYLDAFIIYKTMFEEWKADGFAPTKTHKNKAGAVNEMKHPLAQQVETWNDKKNKMLEALGMTNKGKSVQKTPKNAENIQTDEPKDELAAHRNKWRKSK,not soluble
15,GPGSMRPNVMLTIPKNTLQVFDMGLDFRSYLSRVDVNGLPVLGNVVSYEASKLTEVFTPTVGLLVTILHMLAHCTSSCSAVAWLKAYDAIQKMYIENSEEENTEAVRYAVEARAAIKDYLTGDAVPGTNLLCEKLLTLLDQQSGIHGSQAPSQRKVPREPKGAFCNLHLSDQKCYQDFACNQLHLQEVKTVRHRKIFYMRLIEVLKAEKRSRQQIRHRIKDSVFFARYGNKVTVQCQGKWIPFFKTVYTDGRLEQALRTQHFACGDSACADENCLGIHPQDRRVTTSSKLMDLNNPDVVLQQIEEEAERHLSMEGAFNDHEAEHISAAASSSSMPSPTSEMWRNTVREYVRQTGIPQVEADESLLRTLQDANVLATPTASTESLTPLLDELDMRTFSSSSPVREHPNAEIG,not soluble
16,MPNITWCDLPEDVSLWPGLPLSLSGDEVMPLDYHAGRSGWLLYGRGLDKQRLTQYQSKLGAAMVIVAAWCVEDYQVIRLAGSLTARATRLAHEAQLDVAPLGKIPHLRTPGLLVMDMDSTAIQIECIDEIAKLAGTGEMVAEVTERAMRGELDFTASLRSRVATLKGADANILQQVRENLPLMPGLTQLVLKLETLGWKVAIASGGFTFFAEYLRDKLRLTAVVANELEIMDGKFTGNVIGDIVDAQYKAKTLTRLAQEYEIPLAQTVAIGDGANDLPMIKAAGLGIAYHAKPKVNEKAEVTIRHADLMGVFCILSGSLNQK,not soluble
17,GPGSMEFIMNSVYAIDPIYLLMSAVAQQMLAMAWFDCIVGQIDRYYVAADKGVRRVEHAITRYPGIMVSATTFACSLLRSLVVLTVVSMCNCSTLYQYQSAAMVAVMIGMMRVHRTFSCHRPIQIFVTETGYEMAAAMTAAVVCYYMKKYNF,soluble
18,MITVLRINHRPYRDKRITTHVALTARAFGASAILVDERDETLENTIRGVISNFGGSFSIKTGCNWIQEFKHFQGIRVHLTMYGRRINDVIDEIRNSGKDVMVLVGSEKVPIEAYEIADYNVSVTNQPISEVSALAIFLDRYFQGKEFEFEFRGRINVQPAERGKIVKIIPDEIECLDLLKKYGASEQLIEHVKAVEGLALKIAERCNADKRVIVAGSLLHDIGRTRTNGIDHAVAGAEILRSENIHDSVVSAVERHIGAGITREEAARLGLPEKDYVPETLEEMIVAQADNLFAGNKRLRLEEVLNIYRKRGLDSAAERIKELHRRISAIAGIDIDEIRLEHHHHHH,soluble
19,MSDKDFFSWRRTMLLRFQRMETAEEVYHEIELQAQQLEYDYYSLCVRHPVPFTRPKVAFYTNYPEAWVSYYQAKNFLAIDPVLNPENFSQGHLMWNDDLFSEAQPLWEAARAHGLRRGVTQYLMLPERALGFLSFSRCSAREIPILSDELQLKMQLLVRESLMALMRLNDE,soluble
